The chains are these.
B1: sp¦P05164¦PERM_HUMAN (protein, UniProt P05164 165-745, looked up)
Myeloperoxidase: VTCPEQDKYRTITGMCNNRRSPTLGASNRAFVRWLPAEYEDGFSLPYGWTPGVKRNGFPVALARAVSNEIVRFPTDQLTPDQERSLMFMQWGQLLDHDLDFTPEPAARASFVTGVNCETSCVQQPPCFPLKIPPNDPRIKNQADCIPFFRSCPACPGSNITIRNQINALTSFVDASMVYGSEEPLARNLRNMSNQLGLLAVNQRFQDNGRALLPFDNLHDDPCLLTNRSARIPCFLAGDTRSSEMPELTSMHTLLLREHNRLATELKSLNPRWDGERLYQEARKIVGAMVQIITYRDYLPLVLGPTAMRKYLPTYRSYNDSVDPRIANVFTNAFRYGHTLIQPFMFRLDNRYQPMEPNPRVPLSRVFFASWRVVLEGGIDPILRGLMATPAKLNRQNQIAVDEIRERLFEQVMRIGLDLPALNMQRSRDHGLPGYNAWRRFCGLPQPETVGQLGTVLRNLKLARKLMEQYGTPNNIDIWMGGVSEPLKRKGRVGPLLACIIGTQFRKLRDGDRFWWENEGVFSMQQRQALAQISLPRIICDNTGITTVSKNNIFMSNSYPRDFVNCSTLPALNLASWREAS
B2: sp¦P08240¦SRPRA_HUMAN (protein, UniProt P08240 1-638, looked up)
Signal recognition particle …: MLDFFTIFSKGGLVLWCFQGVSDSCTGPVNALIRSVLLQERGGNNSFTHEALTLKYKLDNQFELVFVVGFQKILTLTYVDKLIDDVHRLFRDKYRTEIQQQSALSLLNGTFDFQNDFLRLLREAEESSKIRAPTTMKKFEDSEKAKKPVRSMIETRGEKPKEKAKNSKKKGAKKEGSDGPLATSKPVPAEKSGLPVGPENGVELSKEELIRRKREEFIQKHGRGMEKSNKSTKSDAPKEKGKKAPRVWELGGCANKEVLDYSTPTTNGTPEAALSEDINLIRGTGSGGQLQDLDCSSSDDEGAAQNSTKPSATKGTLGGMFGMLKGLVGSKSLSREDMESVLDKMRDHLIAKNVAADIAVQLCESVANKLEGKVMGTFSTVTSTVKQALQESLVQILQPQRRVDMLRDIMDAQRRQRPYVVTFCGVNGVGKSTNLAKISFWLLENGFSVLIAACDTFRAGAVEQLRTHTRRLSALHPPEKHGGRTMVQLFEKGYGKDAAGIAMEAIAFARNQGFDVVLVDTAGRMQDNAPLMTALAKLITVNTPDLVLFVGEALVGNEAVDQLVKFNRALADHSMAQTPRLIDGIVLTKFDTIDDKVGAAISMTYITSKPIVFVGTGQTYCDLRSLNAKAVVAALMKA
B3: sp¦Q9H3N1¦TMX1_HUMAN (protein, UniProt Q9H3N1 27-280, looked up)
Thioredoxin-related …: RRSNVRVITDENWRELLEGDWMIEFYAPWCPACQNLQPEWESFAEWGEDLEVNIAKVDVTEQPGLSGRFIITALPTIYHCKDGEFRRYQGPRTKKDFINFISDKEWKSIEPVSSWFGPGSVLMSSMSALFQLSMWIRTCHNYFIEDLGLPVWGSYTVFALATLFSGLLLGLCMIFVADCLCPSKRRRPQPYPYPSKKLLSESAQPLKKVEEEQEADEEDVSEEEAESKEGTNKDFPQNAIRQRSLGPSLATDKS
B4: sp¦Q9NVH1¦DJC11_HUMAN (protein, UniProt Q9NVH1 2-559, looked up)
DnaJ homolog subfamily C …: ATALSEEELDNEDYYSLLNVRREASSEELKAAYRRLCMLYHPDKHRDPELKSQAERLFNLVHQAYEVLSDPQTRAIYDIYGKRGLEMEGWEVVERRRTPAEIREEFERLQREREERRLQQRTNPKGTISVGVDATDLFDRYDEEYEDVSGSSFPQIEINKMHISQSIEAPLTATDTAILSGSLSTQNGNGGGSINFALRRVTSAKGWGELEFGAGDLQGPLFGLKLFRNLTPRCFVTTNCALQFSSRGIRPGLTTVLARNLDKNTVGYLQWRWGIQSAMNTSIVRDTKTSHFTVALQLGIPHSFALISYQHKFQDDDQTRVKGSLKAGFFGTVVEYGAERKISRHSVLGAAVSVGVPQGVSLKVKLNRASQTYFFPIHLTDQLLPSAMFYATVGPLVVYFAMHRLIIKPYLRAQKEKELEKQRESAATDVLQKKQEAESAVRLMQESVRRIIEAEESRMGLIIVNAWYGKFVNDKSRKSEKVKVIDVTVPLQCLVKDSKLILTEASKAGLPGFYDPCVGEEKNLKVLYQFRGVLHQVMVLDSEALRIPKQSHRIDTDG
B5: sp¦P11177¦ODPB_HUMAN (protein, UniProt P11177 31-359, looked up)
Pyruvate dehydrogenase E1 …: LQVTVRDAINQGMDEELERDEKVFLLGEEVAQYDGAYKVSRGLWKKYGDKRIIDTPISEMGFAGIAVGAAMAGLRPICEFMTFNFSMQAIDQVINSAAKTYYMSGGLQPVPIVFRGPNGASAGVAAQHSQCFAAWYGHCPGLKVVSPWNSEDAKGLIKSAIRDNNPVVVLENELMYGVPFEFPPEAQSKDFLIPIGKAKIERQGTHITVVSHSRPVGHCLEAAAVLSKEGVECEVINMRTIRPMDMETIEASVMKTNHLVTVEGGWPQFGVGAEICARIMEGPAFNFLDAPAVRVTGADVPMPYAKILEDNSIPQVKDIIFAIKKTLNI
B6: sp¦P10809¦CH60_HUMAN (protein, UniProt P10809 27-573, looked up)
60 kDa heat shock protein, …: AKDVKFGADARALMLQGVDLLADAVAVTMGPKGRTVIIEQSWGSPKVTKDGVTVAKSIDLKDKYKNIGAKLVQDVANNTNEEAGDGTTTATVLARSIAKEGFEKISKGANPVEIRRGVMLAVDAVIAELKKQSKPVTTPEEIAQVATISANGDKEIGNIISDAMKKVGRKGVITVKDGKTLNDELEIIEGMKFDRGYISPYFINTSKGQKCEFQDAYVLLSEKKISSIQSIVPALEIANAHRKPLVIIAEDVDGEALSTLVLNRLKVGLQVVAVKAPGFGDNRKNQLKDMAIATGGAVFGEEGLTLNLEDVQPHDLGKVGEVIVTKDDAMLLKGKGDKAQIEKRIQEIIEQLDVTTSEYEKEKLNERLAKLSDGVAVLKVGGTSDVEVNEKKDRVTDALNATRAAVEEGIVLGGGCALLRCIPALDSLTPANEDQKIGIEIIKRTLKIPAMTIAKNAGVEGSLIVEKIMQSSSEVGYDAMAGDFVNMVEKGIIDPTKVVRTALLDAAGVASLLTTAEVVVTEIPKEEKDPGMGAMGGMGGGMGGGMF
B7: sp¦O95466¦FMNL1_HUMAN (protein, UniProt O95466 2-1100, looked up)
Formin-like protein 1: GNAAGSAEQPAGPAAPPPKQPAPPKQPMPAAGELEERFNRALNCMNLPPDKVQLLSQYDNEKKWELICDQERFQVKNPPAAYIQKLKSYVDTGGVSRKVAADWMSNLGFKRRVQESTQVLRELETSLRTNHIGWVQEFLNEENRGLDVLLEYLAFAQCSVTYDMESTDNGASNSEKNKPLEQSVEDLSKGPPSSVPKSRHLTIKLTPAHSRKALRNSRIVSQKDDVHVCIMCLRAIMNYQSGFSLVMNHPACVNEIALSLNNKNPRTKALVLELLAAVCLVRGGHDIILAAFDNFKEVCGEQHRFEKLMEYFRNEDSNIDFMVACMQFINIVVHSVENMNFRVFLQYEFTHLGLDLYLERLRLTESDKLQVQIQAYLDNIFDVGALLEDTETKNAVLEHMEELQEQVALLTERLRDAENESMAKIAELEKQLSQARKELETLRERFSESTAMGPSRRPPEPEKAPPAAPTRPSALELKVEELEEKGLIRILRGPGDAVSIEILPVAVATPSGGDAPTPGVPTGSPSPDLAPAAEPAPGAAPPPPPPLPGLPSPQEAPPSAPPQAPPLPGSPEPPPAPPLPGDLPPPPPPPPPPPGTDGPVPPPPPPPPPPPGGPPDALGRRDSELGPGVKAKKPIQTKFRMPLLNWVALKPSQITGTVFTELNDEKVLQELDMSDFEEQFKTKSQGPSLDLSALKSKAAQKAPSKATLIEANRAKNLAITLRKGNLGAERICQAIEAYDLQALGLDFLELLMRFLPTEYERSLITRFEREQRPMEELSEEDRFMLCFSRIPRLPERMTTLTFLGNFPDTAQLLMPQLNAIIAASMSIKSSDKLRQILEIVLAFGNYMNSSKRGAAYGFRLQSLDALLEMKSTDRKQTLLHYLVKVIAEKYPQLTGFHSDLHFLDKAGSVSLDSVLADVRSLQRGLELTQREFVRQDDCMVLKEFLRANSPTMDKLLADSKTAQEAFESVVEYFGENPKTTSPGLFFSLFSRFIKAYKKAEQEVEQWKKEAAAQEAGADTPGKGEPPAPKSPPKARRPQMDLISELKRRQQKEPLIYESDRDGAIEDIITVIKTVPFTARTGKRTSRLLCEASLGEEMPL
B8: sp¦P23634¦AT2B4_HUMAN (protein, UniProt P23634 1-1241, looked up)
Plasma membrane …: MTNPSDRVLPANSMAESREGDFGCTVMELRKLMELRSRDALTQINVHYGGVQNLCSRLKTSPVEGLSGNPADLEKRRQVFGHNVIPPKKPKTFLELVWEALQDVTLIILEIAAIISLVLSFYRPAGEENELCGQVATTPEDENEAQAGWIEGAAILFSVIIVVLVTAFNDWSKEKQFRGLQCRIEQEQKFSIIRNGQLIQLPVAEIVVGDIAQVKYGDLLPADGILIQGNDLKIDESSLTGESDHVKKSLDKDPMLLSGTHVMEGSGRMVVTAVGVNSQTGIILTLLGVNEDDEGEKKKKGKKQGVPENRNKAKTQDGVALEIQPLNSQEGIDNEEKDKKAVKVPKKEKSVLQGKLTRLAVQIGKAGLLMSALTVFILILYFVIDNFVINRRPWLPECTPIYIQYFVKFFIIGITVLVVAVPEGLPLAVTISLAYSVKKMMKDNNLVRHLDACETMGNATAICSDKTGTLTMNRMTVVQAYIGGIHYRQIPSPDVFLPKVLDLIVNGISINSAYTSKILPPEKEGGLPRQVGNKTECALLGFVTDLKQDYQAVRNEVPEEKLYKVYTFNSVRKSMSTVIRNPNGGFRMYSKGASEIILRKCNRILDRKGEAVPFKNKDRDDMVRTVIEPMACDGLRTICIAYRDFDDTEPSWDNENEILTELTCIAVVGIEDPVRPEVPDAIAKCKQAGITVRMVTGDNINTARAIATKCGILTPGDDFLCLEGKEFNRLIRNEKGEVEQEKLDKIWPKLRVLARSSPTDKHTLVKGIIDSTVGEHRQVVAVTGDGTNDGPALKKADVGFAMGIAGTDVAKEASDIILTDDNFTSIVKAVMWGRNVYDSISKFLQFQLTVNVVAVIVAFTGACITQDSPLKAVQMLWVNLIMDTFASLALATEPPTESLLKRRPYGRNKPLISRTMMKNILGHAFYQLIVIFILVFAGEKFFDIDSGRKAPLHSPPSQHYTIVFNTFVLMQLFNEINSRKIHGEKNVFSGIYRNIIFCSVVLGTFICQIFIVEFGGKPFSCTSLSLSQWLWCLFIGIGELLWGQFISAIPTRSLKFLKEAGHGTTKEEITKDAEGLDEIDHAEMELRRGQILWFRGLNRIQTQIDVINTFQTGASFKGVLRRQNMGQHLDVKLVPSSSYIKVVKAFHSSLHESIQKPYNQKSIHSFMTHPEFAIEEELPRTPLLDEEEEENPDKASKFGTRVLLLDGEVTPYANTNNNAVDCNQVQLPQSDSSLQSLETSV

For the first test, the system named is human HL60 cells. The experiment in a line: SWATH-MS proteomics, differential protein representation, akirin2 KO vs WT HL60 cells. It is filed as cell-based. The following applies: SWATH-MS, akirin2 KO vs WT HL60 cells, under-represented in KO. A digest of the protocol: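 Three biological replicates per genotype; 150 µg protein FASP/trypsin digested; IDA library (3 µg digest); SWATH variable windows, 5 µg/sample, 3.6 s cycle; gradient 5–30% B 120 min then 30–60% B 15 min; 1% global FDR; TAS normalization.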
With B1, the “Fold Change” value was 0.7315 and the “Log (Fold Change)” value is on record as -0.1358.

B2: the “Fold Change” value stood at 0.7296 and the “Log (Fold Change)” value is -0.1369.

Consider B3, for which the “Fold Change” value is recorded as 0.7331 and the “Log (Fold Change)” value was -0.1348.

In the case of B4, the “Fold Change” value amounted to 0.7368 and the “Log (Fold Change)” value is on record as -0.1326.

In the case of B5, the “Fold Change” value worked out at 0.7344 and the “Log (Fold Change)” value is -0.1341.

For B6, the “Fold Change” value came out at 0.7233 and the “Log (Fold Change)” value is given as -0.1407.

The same test, now with this note: akirin2 KO vs WT HL60 cells; sheet "Under-represented in KO".
Turning to B7, the “Fold Change” value stood at 0.3323 and the “Log (Fold Change)” value was -0.4785.

For the molecule B8, the “Fold Change” value worked out at 0.3316 and the “Log (Fold Change)” value was -0.4794.
